According to IntAct's records for PubMed 16137684:

B1: Thyroid receptor-interacting protein 6 (Homo sapiens), Q15654 (parent)
chain: MSGPTWLPPKQPEPARAPQGRAIPRGTPGPPPAHGAALQPHPRVNFCPLPSEQCYQAPGGPEDRGPAWVGSHGVLQHTQGLPADRGGLRPGSLDAEIDLLSSTLAELNGGRGHASRRPDRQAYEPPPPPAYRTGSLKPNPASPLPASPYGGPTPASYTTASTPAGPAFPVQVKVAQPVRGCGPPRRGASQASGPLPGPHFPLPGRGEVWGPGYRSQREPGPGAKEEAAGVSGPAGRGRGGEHGPQVPLSQPPEDELDRLTKKLVHDMNHPPSGEYFGQCGGCGEDVVGDGAGVVALDRVFHVGCFVCSTCRAQLRGQHFYAVERRAYCEGCYVATLEKCATCSQPILDRILRAMGKAYHPGCFTCVVCHRGLDGIPFTVDATSQIHCIEDFHRKFAPRCSVCGGAIMPEPGQEETVRIVALDRSFHIGCYKCEECGLLLSSEGECQGCYPLDGHILCKACSAWRIQELSATVTTDC

Tests used:
Details in all cases: with scrib_human SCRIB
[1] = variants of: B1
[2] = variants of: B1; remark: listed apart in the source
[3] = variants of: B1; remark: listed apart in the source
[4] = variants of: B1; remark: listed apart in the source

Row | effect of a mutation on the interaction [1] | effect of a mutation on the interaction [2] | effect of a mutation on the interaction [3] | effect of a mutation on the interaction [4] | Variant
1 | disrupting interaction | decreasing interaction |  |  | C476A
2 |  |  | disrupting interaction | decreasing interaction | T474A
